The values that follow come from patent US12709641B2.

Holding throughout (conditions): remark: other sources report otherwise
For test [1], the target named is wild type tau (Homo sapiens (Human)), P10636. Description: Octet. A general note: BLI is a label-free optical method that tracks binding on a fibre tip over time.
Test [2] deals with iPHF (Homo sapiens (Human)), P10636. Description: Octet, antibody on biosensor tips.
The target of test [3] is T1, enriched paired helical filament tau protein (ePHF) (human). Description: direct ELISA. A general note: An ELISA detects its analyte on a solid surface through an enzyme-linked reagent.
The target of test [4] is T1, enriched paired helical filament tau …. As to the kind of experiment: follow up analysis, method not stated.

Some results are limits rather than exact numbers.

B1: V0058 (antibody, V domains shown)
VH: not shown
VL: DIVMTQSPSSLSVSAGEKVTMSCKSSQSLLSSGNQKNYLAWYQQKPGQPPKLLIYGASTRESGVPDRFTGSGSGTDFTLTISSVQAEDLAVYYCQNDHSHPYTFGGGTKLEIK
A word on the Kd: it is the free concentration of one partner at which half of the binding sites on the other are occupied at equilibrium, for simple one-to-one binding. The low end stands for tighter binding, the high end for weaker binding. Take B1: in test [1], the Kd is more than 200 nM.

B2: V0057 (antibody, V domains shown)
VH: not shown
VL: DIVMTQSPSSLSVSAGEKVTMSCKSSQSLLNSGNQKNYLAWYQQKPGQPPKLLIYGASTRESGVPDRFTGSGSGTDFTLTISSVQAEDLAVYYCQNDHSHPYTFGGGTKLEIK
With B2, the Kd in test [1] is more than 200 nM.

B3: V0054 (antibody, V domains shown)
VH: not shown
VL: DIVMTQSPSSLSVSAGEKVTMSCKSSQSLLNSGNQKNYLAWYQQKPGQPPKLLIYGTSTRESGVPDRFTGSGSGTDFTLTISSVQAEDLAVYYCQNDHSHPYTFGGGTKLEIK
B3 had a Kd in test [1] of more than 200 nM.

B4: V0055 (antibody, V domains shown)
VH: not shown
VL: DIVMTQSPSSLSVSAGEKVTMSCKSSQSLLNSGNQKNYLAWYQQKPGQPPKLLIYGASTRESGVPDRFTGSGSGTDFTLTISSVQAEDLAVYYCQNDHSHPYTFGGGTKLEIK
Turning to B4, the Kd in test [1] is more than 200 nM.

B5: V0024 (antibody, V domains shown)
VH: QVQLQQPGTELVKPGASVKLSCKASGYTFTRFWMHWVKQRPGQGLEWIGNINPNNGGTDNNERFKSKATLTVDRSSSTAYMQLSSLTSEDSAVYYCARGTGTGAMDYWGQGTSVTVSS
VL: DVVMTQTPLSLPVSLGDQASISCRSSQSLVHSNGNTHLYWYLQKPGQSPKLLIYRVSSRFSGVPDRFSGSGSGTDFTLKISRVEAEDLGVYFCFQGTHVPRTFGGGTKLEIK
By EC50 is commonly meant the concentration at which the effect is half-maximal. Higher therefore signals weaker potency. Regarding B5, the Kd is 2.8 nM in test [2] and more than 200 nM in test [1]. The same molecule came in with an EC50 in test [3] of 0.125 nM. The same molecule registered a selectivity for ePHF over wild type tau in test [4] of more than 100 fold.

B6: V0023 (antibody, V domains shown)
VH: QVQLQQPGTELVKPGASVKLSCKASGYTFTIFWMHWVKQRPGHGLEWIGKINPNNGGGDYNEKFKSKATLTVDKSSTTAYLQLSSLTSEDSAVYYCARGTGTGAMDYWGQGTSVTVSS
VL: DVVMTQTPLSLPVSLGDHASISCRSSQSLVHSNGITHLYWYLQRPGQTPKLLIYRVSNRFSGVPDRFSGSGSGTDFTLKISSVEAEDLGVYFCFQGTHVPRTFGGGTKLEIE
B6: the Kd in test [1] was more than 200 nM.

B7: V0026 (antibody, V domains shown)
VH: QVQLQQSGPELVKPGASVKISCKASGYSFTDYYINWVKQRPGQGLEWIGWIFPGSDSTYYNEKFKGKATLTVDKSSSTASMLLSSLTSEDSAVYFCARPTVVARDYAMDYWGQGTSVTVSS
VL: DVLMTQTPLSLPVSLGDQASISCRSSQSIVYSNGNTYLEWYLQKPGQSPKLLIYKVSNRFSGVPDRFSGSGSGTDFTLKISRVEAEDLGVYYCFQGSHVPYTFGGGTKLEIK
As to B7, the Kd in test [1] is more than 200 nM.

B8: V0022 (antibody, V domains shown)
VH: QVQLQQPGTELVKPGSSVNLSCKASGFTFTRYWMHWVKERPGHGLEWIGNINPNNGGTDFNEKFKNKATLTVHKSSTTVFIQLSSLTSEDSAVYYCARGTGTGAMDYWGQGTSVTVSS
VL: DVVMTQTPLSLPVSLGDQASISCRSSQSLVHNNGITYLYWYLQKPGQSPKLLIYRVSNRFSGVPDRFGGSGSGTDFTLKISRVEAEDLGVYFCFQGTHVPRTFGGGTKLEIK
B8 came in with a Kd in test [1] of more than 200 nM.

B9: V0004 (antibody, V domains shown)
VH: QVQLQQPGAELVKPGASVKLSCKASDYTFTNYWMHWVKQRPGRGLEWIGRIDPNSGGTRYNEKFKNKATLTVDKPSSTAYMHLSSLTSEDSAVYYCAGDFDVWGTGTTVTVSS
VL: DIQMTQSPASLSASVGETVTITCRASGNIHNYLAWYQQRQGKSPQLLVYNAKTLPDGVPSRFSGSGSGTQYSLKINSLQPEDFGSYCCQHFWSTPLTFGAGTKLELK
In turn, B9 gave a Kd in test [1] of more than 200 nM.

B10: V0021 (antibody, V domains shown)
VH: QVQLQQPGIELVKTGASVKLSCKASGYTFTSNWMHWLKQRPGQGLEWIGNINPNNSETNYNEKFRKKATLTVDKSSSAAYMQLISLTSEDSAVYYCARANYYGGSQFAYWGQGTLVTVSA
VL: DVVMTQTPLSLCVSLGDQASISCRSSQSLVHSNGKTYLHWYLQKPGQSPNLLIYKVSNRFSGVPDRFSGSGSGTDFTLKISRVEAEDLGVYFCSQSTHVPFTFGSGTKLEIK
The molecule B10 registered a Kd in test [1] of more than 200 nM.

B11: V0020 (antibody, V domains shown)
VH: QVQLQQPGTDLVKPGASVKLSCKASGYTFTSYWMHWLKQRPGQGLEWIGNINPNNSDANYNEKFKSKATLTVDKSSSAAYMQLISLTSEDSAVYYCARANYYGGSQFAYWGQGTLVTVSA
VL: DVVVTQTPLSLPVSLGDQASISCRSSQSLVHSNGKTYLHWYLQKPGQSPNLLIYKVSNRFSGVPDRFSGSGSGTDFTLKISRVEAEDLGVYFCSQSTHVPFTFGSGTKLEIK
As to B11, in test [1], the Kd is more than 200 nM.

B12: V0050 (antibody, V domains shown)
VH: EVQLQQSGPELVKPGASVKIPCRASGYTFTDYNMDWVKQSHGKTLEWIGDINPNNGGTIYNQKFKGKATLTVDKSSSTAYMELRSLTSEDTAVYYCARGRGMGYYALDYWGQGTSVTVSS
VL: DIQMTQSPASLSASVGETVTFTCGASENVYGALNWYQRKQGKSPQLLIYGATNLADGMSSRFSGSGSGRQYSLKISSLHPDDVATYYCQNVLTIPWTFGGGAKLEIK
On to B12, for which the Kd in test [1] was more than 200 nM.

B13: V0052 (antibody, V domains shown)
VH: not shown
VL: SIVMTQTPKFLLVSAGDRVTITCKASQSVSNDVAWYQQKPGQSPKLLIYYASNRCTGVPDRFTGSGYGTDFTFTISTVQAEDLAVYFCQQDYRSPLTFGAGTKLELK
Consider B13, for which the Kd in test [1] is more than 200 nM.

B14: V00016 (antibody, V domains shown)
VH: EVQLQQSGAELVKPGASVKLSCTASGFNIKDYYIHWVKQRTEQGLEWIGRIDPEDGETKYAPKFQGKATIAADTSSNTAYLHLNSLTSEDTAVYYCAREFSYAMDYWGQGTSVTVSS
VL: NIMMTQSPSSLAVSAGEKVTMSCKSSQSVLYSSNQKNYLAWYQQKPGQSPKLLIYWASTRESGVPDRFTGSGSGTDFTLTISSVQAEDLAVYYCHQYLSSRTFGGGTKLEIK
As for B14, in test [2], the Kd is 5.5 nM.

B15: V0027 (antibody, V domains shown)
VH: QVQLQQSGPELVKPGASVKISCKASGYTFTEYYLNWMKQRPGQGLEWIGWIFPGRGSTNYNEKFKGKATLTVDKSSSTAYMLLSSLTSEDSAVYFCARPTIVARDYAMDYWGQGTSVTVSS
VL: DVLMTQTPLSLPVSLGDQASISCRSSQSIVHRNGNTYLEWYLQKPGQSPKLLIYKVSNRFSGVPDRFSGSGSGTDFTLKISRVEAEDLGVYYCFQGSHVPFTFGSGTKLEIK
Regarding B15, the Kd in test [1] is more than 200 nM.

B16: V0031 (antibody, V domains shown)
VH: QVQLQQPGTELVKPGASVKLSCKASGYTFTSYWMHWVKQRPGQGLEWIGNIYPSNGGTYYNEKFKSKATLTVDKSSSTAYMQLSSLTSEDSAVYYCARSSVVGRDYAMDYWGQGTSVTVSS
VL: DVLMTQTPLSLPVSLGDQASIACRSSQSIVHSNGNTYLEWYLQKPGQSPELLIYKVSNRFSGVPDRFSGSGSGTDFTLKISRVEAEDLGVYYCFQGSHVPYTFGGGTKLEIK
In test [1], B16 showed a Kd of more than 200 nM.

B17: V0032 (antibody, V domains shown)
VH: QVQLKQSGAELVRPGASVKLSCKTSGYTFTDYYIKWVKQRPGQGLEWIARIYPGSGNTYYNEKFKGKATLTAEKSSSTAYMQLSSLTSEDSAVYFCARPAYYSKDYAMEYWGQGTSVTVSS
VL: DVLMTQTPLSLPVSLGDQASISCRSSQSIVYTNGNTYLEWYLQKPGQSPKLLIYKVSNRFSGVPDRFSGSGSGTDFTLKISRVEAEDLGVYYCFQGSHVPYTFGGGTKLEIK
In the case of B17, the Kd in test [1] is more than 200 nM.
